Test results published in paper PMC6231325.

Target: GFP_CaV2.2-HA (rabbit) (UniProt Q05152)
Assay: co-IP; competition: tsA-201 cells transfected with GFP_CaV2.2-HA, β1b, α2δ-1 and (TASK3, Cachd1 or a 1:1 mix of both) in a ratio of 2:1:2:1; IP with anti-GFP Ab, 300 mM NaCl, digitonin; α2δ-1 in IP/input normalised to no Cachd1

Sequence of UniProt Q05152 (Q05152 whole entry): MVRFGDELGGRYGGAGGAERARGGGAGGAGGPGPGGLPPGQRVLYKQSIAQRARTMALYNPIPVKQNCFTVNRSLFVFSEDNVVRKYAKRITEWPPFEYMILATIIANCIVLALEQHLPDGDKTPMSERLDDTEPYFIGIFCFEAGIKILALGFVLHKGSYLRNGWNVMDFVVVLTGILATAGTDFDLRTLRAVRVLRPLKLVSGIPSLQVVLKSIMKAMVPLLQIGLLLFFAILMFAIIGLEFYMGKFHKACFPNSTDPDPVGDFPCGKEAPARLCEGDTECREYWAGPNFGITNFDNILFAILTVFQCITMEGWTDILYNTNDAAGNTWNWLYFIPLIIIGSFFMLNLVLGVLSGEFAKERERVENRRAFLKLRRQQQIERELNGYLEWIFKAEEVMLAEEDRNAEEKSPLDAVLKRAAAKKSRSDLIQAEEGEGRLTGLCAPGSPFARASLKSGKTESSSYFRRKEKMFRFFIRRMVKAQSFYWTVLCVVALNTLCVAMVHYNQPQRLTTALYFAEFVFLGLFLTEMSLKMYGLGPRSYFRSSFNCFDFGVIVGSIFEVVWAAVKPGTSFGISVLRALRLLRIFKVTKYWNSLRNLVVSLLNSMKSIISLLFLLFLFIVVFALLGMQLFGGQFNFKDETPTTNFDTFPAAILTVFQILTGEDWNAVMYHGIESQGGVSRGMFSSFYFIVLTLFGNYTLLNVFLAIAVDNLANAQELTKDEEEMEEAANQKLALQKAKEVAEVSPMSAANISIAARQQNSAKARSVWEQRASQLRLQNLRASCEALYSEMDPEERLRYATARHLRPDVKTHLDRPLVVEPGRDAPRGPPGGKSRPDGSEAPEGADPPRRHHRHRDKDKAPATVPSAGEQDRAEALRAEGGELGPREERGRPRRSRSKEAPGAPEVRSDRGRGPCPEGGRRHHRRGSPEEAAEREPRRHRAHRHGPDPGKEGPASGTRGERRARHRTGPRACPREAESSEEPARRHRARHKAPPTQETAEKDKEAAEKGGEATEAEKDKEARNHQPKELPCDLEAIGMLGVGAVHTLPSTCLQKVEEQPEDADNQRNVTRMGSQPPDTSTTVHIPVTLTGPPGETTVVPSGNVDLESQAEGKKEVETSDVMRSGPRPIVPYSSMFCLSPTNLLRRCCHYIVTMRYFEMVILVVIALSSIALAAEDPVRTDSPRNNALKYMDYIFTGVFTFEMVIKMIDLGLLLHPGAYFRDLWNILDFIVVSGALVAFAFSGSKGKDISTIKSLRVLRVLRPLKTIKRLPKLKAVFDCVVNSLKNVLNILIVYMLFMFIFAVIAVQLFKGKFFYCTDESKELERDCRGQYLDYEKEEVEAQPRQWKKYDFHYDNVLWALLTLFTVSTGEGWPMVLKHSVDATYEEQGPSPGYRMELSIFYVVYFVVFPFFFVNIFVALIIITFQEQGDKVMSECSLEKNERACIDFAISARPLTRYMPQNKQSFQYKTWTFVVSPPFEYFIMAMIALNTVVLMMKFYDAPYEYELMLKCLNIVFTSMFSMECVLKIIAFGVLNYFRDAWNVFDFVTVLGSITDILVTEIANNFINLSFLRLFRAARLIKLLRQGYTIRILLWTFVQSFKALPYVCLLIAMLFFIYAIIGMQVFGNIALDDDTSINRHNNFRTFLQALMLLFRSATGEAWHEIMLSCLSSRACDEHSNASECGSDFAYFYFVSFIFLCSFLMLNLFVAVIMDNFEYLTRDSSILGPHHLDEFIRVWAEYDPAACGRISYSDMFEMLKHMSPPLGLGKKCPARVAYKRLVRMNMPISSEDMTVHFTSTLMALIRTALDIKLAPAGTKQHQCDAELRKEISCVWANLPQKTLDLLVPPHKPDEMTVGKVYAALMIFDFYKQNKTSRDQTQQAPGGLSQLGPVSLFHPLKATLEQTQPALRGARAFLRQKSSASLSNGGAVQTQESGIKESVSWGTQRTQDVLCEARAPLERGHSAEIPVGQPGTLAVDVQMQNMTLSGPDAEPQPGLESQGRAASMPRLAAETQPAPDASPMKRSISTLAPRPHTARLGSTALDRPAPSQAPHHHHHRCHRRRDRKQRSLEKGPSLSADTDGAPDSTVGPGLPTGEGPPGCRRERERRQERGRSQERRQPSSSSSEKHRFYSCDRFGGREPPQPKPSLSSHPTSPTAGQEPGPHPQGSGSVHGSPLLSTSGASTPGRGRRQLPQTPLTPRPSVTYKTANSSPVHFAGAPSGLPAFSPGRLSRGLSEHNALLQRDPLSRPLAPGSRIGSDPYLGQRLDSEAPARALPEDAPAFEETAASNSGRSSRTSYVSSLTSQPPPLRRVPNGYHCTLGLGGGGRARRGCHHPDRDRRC

percent reduction of the coIP of α2δ-1 with GFP CaV2.2 (1× Cachd1): 71%
Substance: Cachd1 (natural protein)
